Test results from IntAct's records for PubMed 20543817.

B1: Neuroligin-2 (Rattus norvegicus (Rat)), Q62888-2 (parent)
chain: MWLLALCLVGLAGAQRGGGGPGGGAPGGPGLGLGSLGEERFPVVNTAYGRVRGVRRELNNEILGPVVQFLGVPYATPPLGARRFQPPEAPASWPGVRNATTLPPACPQNLHGALPAIMLPVWFTDNLEAAATYVQNQSEDCLYLNLYVPTEDDIRDSGKKPVMLFLHGGSYMEGTGNMFDGSVLAAYGNVIVATLNYRLGVLGFLSTGDQAAKGNYGLLDQIQALRWLSENIAHFGGDPERITIFGSGAGASCVNLLILSHHSEGLFQKAIAQSGTAISSWSVNYQPLKYTRLLAAKVGCDREDSTEAVECLRRKSSRELVDQDVQPARYHIAFGPVVDGDVVPDDPEILMQQGEFLNYDMLIGVNQGEGLKFVEDSAESEDGVSASAFDFTVSNFVDNLYGYPEGKDVLRETIKFMYTDWADRDNGEMRRKTLLALFTDHQWVAPAVATAKLHADYQSPVYFYTFYHHCQAEGRPEWADAAHGDELPYVFGVPMVGATDLFPCNFSKNDVMLSAVVMTYWTNFAKTGDPNQPVPQDTKFIHTKPNRFEEVVWSKFNSKEKQYLHIGLKPRVRDNYRANKVAFWLELVPHLHNLHTELFTTTTRLPPYATRWPPRTPGPGTSGTRRPPPPATLPPESDIDLGPRAYDRFPGDSRDYSTELSVTVAVGASLLFLNILAFAALYYKRDRRQELRCRRLSPPGGSGSGVPGGGPLLPTAGRELPPEEELVSLQLKRGGGVGADPAEALRPACPPDYTLALRRAPDDVPLLAPGALTLLPSGLGPPPPPPPPSLHPFGPFPPPPPTATSHNNTLPHPHSTTRV
B2: Neuroligin-1 (Rattus norvegicus (Rat)), Q62765-2 (parent)
chain: MALPRCMWPNYVWRAMMACVVHRGSGAPLTLCLLGCLLQTFHVLSQKLDDVDPLVTTNFGKIRGIKKELNNEILGPVIQFLGVPYAAPPTGEHRFQPPEPPSPWSDIRNATQFAPVCPQNIIDGRLPEVMLPVWFTNNLDVVSSYVQDQSEDCLYLNIYVPTEDDIRDSGGPKPVMVYIHGGSYMEGTGNLYDGSVLASYGNVIVITVNYRLGVLGFLSTGDQAAKGNYGLLDLIQALRWTSENIGFFGGDPLRITVFGSGAGGSCVNLLTLSHYSEGLFQRAIAQSGTALSSWAVSFQPAKYARILATKVGCNVSDTVELVECLQKKPYKELVDQDVQPARYHIAFGPVIDGDVIPDDPQILMEQGEFLNYDIMLGVNQGEGLKFVENIVDSDDGVSASDFDFAVSNFVDNLYGYPEGKDVLRETIKFMYTDWADRHNPETRRKTLLALFTDHQWVAPAVATADLHSNFGSPTYFYAFYHHCQTDQVPAWADAAHGDEVPYVLGIPMIGPTELFPCNFSKNDVMLSAVVMTYWTNFAKTGDPNQPVPQDTKFIHTKPNRFEEVAWTRYSQKDQLYLHIGLKPRVKEHYRANKVNLWLELVPHLHNLNDISQYTSTTTKVPSTDITLRPTRKNSTPVTSAFPTAKQDDPKQQPSPFSVDQRDYSTELSVTIAVGASLLFLNILAFAALYYKKDKRRHDVHRRCSPQRTTTNDLTHAPEEEIMSLQMKHTDLDHECESIHPHEVVLRTACPPDYTLAMRRSPDDVPLMTPNTITMIPNTIPGIQPLHTFNTFTGGQNNTLPHPHPHPHSHSTTRV

Variants of: B1
Conditions: with Nrxn1, Q63373-3
Target sequence in this assay (Q63373 other isoform, or with tags, fused parts or gaps): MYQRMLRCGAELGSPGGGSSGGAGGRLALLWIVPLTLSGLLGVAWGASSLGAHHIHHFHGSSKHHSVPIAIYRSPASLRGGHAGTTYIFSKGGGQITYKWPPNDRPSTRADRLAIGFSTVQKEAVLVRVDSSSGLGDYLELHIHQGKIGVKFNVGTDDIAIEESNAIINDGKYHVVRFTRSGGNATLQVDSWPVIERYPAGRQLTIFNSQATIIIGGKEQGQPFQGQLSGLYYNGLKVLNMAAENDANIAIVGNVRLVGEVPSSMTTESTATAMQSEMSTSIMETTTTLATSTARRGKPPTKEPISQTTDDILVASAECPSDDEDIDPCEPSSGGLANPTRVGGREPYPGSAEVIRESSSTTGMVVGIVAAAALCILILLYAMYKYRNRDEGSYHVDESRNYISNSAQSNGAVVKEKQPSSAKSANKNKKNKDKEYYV

effect of a mutation on the interaction | Variant
increasing interaction | Q458G

Variants of: B2
Conditions: with Nrxn1, Q63373-3
Target sequence in this assay (Q63373 other isoform, or with tags, fused parts or gaps): as above

effect of a mutation on the interaction | Variant
disrupting interaction | G471A
